The term koff denotes the rate constant with which the complex falls apart. The low end stands for a long-lived complex, the high end for a short-lived complex. Broadly, the Kd is the constant that tells how readily two partners part at equilibrium. Read a low Kd as a tighter complex.

Test in all cases: SPR
On the technique in general: Surface plasmon resonance follows binding to a sensor surface in real time, without labels.

Assay [1] concerns the target T1, coxsackie and adenovirus receptor (CAR), immobilised for SPR (UniProt P78310 20-365).
T1 chain: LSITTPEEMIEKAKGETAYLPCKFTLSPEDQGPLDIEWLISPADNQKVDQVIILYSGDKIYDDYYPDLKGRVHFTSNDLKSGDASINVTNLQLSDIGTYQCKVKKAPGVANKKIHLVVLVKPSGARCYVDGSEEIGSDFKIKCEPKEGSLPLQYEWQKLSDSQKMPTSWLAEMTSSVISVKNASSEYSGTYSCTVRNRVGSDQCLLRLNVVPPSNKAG

In assay [2] the target is T2, CD46, immobilised for SPR (UniProt P15529 35-392).
T2 chain: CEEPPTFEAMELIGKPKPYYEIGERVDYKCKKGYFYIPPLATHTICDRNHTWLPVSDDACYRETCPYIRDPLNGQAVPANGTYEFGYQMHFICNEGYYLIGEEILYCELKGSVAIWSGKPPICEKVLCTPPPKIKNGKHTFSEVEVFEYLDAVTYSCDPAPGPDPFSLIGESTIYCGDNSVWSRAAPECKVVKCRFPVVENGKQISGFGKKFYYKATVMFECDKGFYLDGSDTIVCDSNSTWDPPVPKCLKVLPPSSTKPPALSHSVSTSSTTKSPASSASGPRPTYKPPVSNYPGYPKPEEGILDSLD

For assay [3], the target named is T2, CD46, immobilised for SPR.

B1: ChAdOx1 fiber knob protein (domain or fragment)
chain: GALTAGNKEDDKLTLWTTPDPSPNCQLLSDRDAKFTLCLTKCGSQILGTVAVAAVTVGSALNPINDTVKSAIVFLRFDSDGVLMSNSSMVGDYWNFREGQTTQSVAYTNAVGFMPNLGAYPKTQSKTPKNSIVSQVYLNGETTMPMTLTITFNGTDEKDTTPVSTYSMTFTWQWTGDYKDKNITFATNSFTFSYMAQE
B1 came in with a koff in assay [1] of 0.00018 s⁻¹.

B2: HAdV-C5 fiber knob protein (domain or fragment)
chain: TGAITVGNKNNDKLTLWTTPAPSPNCRLNAEKDAKLTLVLTKCGSQILATVSVLAVKGSLAPISGTVQSAHLIIRFDENGVLLNNSFLDPEYWNFRNGDLTEGTAYTNAVGFMPNLSAYPKSHGKTAKSNIVSQVYLNGDKTKPVTLTITLNGTQETGDTTPSAYSMSFSWDWSGHNYINEIFATSSYTFSYIAQE
In the case of B2, in assay [1], the koff came out at 0.000109 s⁻¹.

B3: HAdV-B35 fiber knob protein (domain or fragment)
chain: FNNGDICIKDSINTLWTGINPPPNCQIVENTNTNDGKLTLVLVKNGGLVNGYVSLVGVSDTVNQMFTQKTANIQLRLYFDSSGNLLTEESDLKIPLKNKSSTATSETVASSKAFMPSTTAYPFNTTTRDSENYIHGICYYMTSYDRSLFPLNISIMLNSRMISSNVAYAIQFEWNLNASESPESNIATLTTSPFFFSYITEDDN
In assay [2], B3 yielded an off-rate (koff) of 0.000994 s⁻¹. In assay [3], this molecule gave a Kd of 4.38 nM.

Values taken from article PMC8635433 (2021).
